Laboratory results published in article PMC12192683, “The LDL receptor-related protein 1 (LRP1) facilitates ACE2-mediated endocytosis of SARS-CoV2 spike protein-containing pseudovirions” (The Journal of Biological Chemistry, 2025).

Target: T1, SARS-CoV-2 spike protein S1 subunit (Val16-Arg685) fused to the Fc region of mouse IgG1 (SARS-CoV-2, UniProt P0DTC2 16-685)
T1 construct: The SPR methods name S1-mFc for LRP1, VLDLR and LRP2; I took it as the S1 subunit of all SPR experiments; also called S1-mFc; Spike S1 subunit; source: bought: Sino Biological; not shown: Fc (mouse IgG1), C-terminal, kept
Assay: SPR; Biacore 3000; receptor amine-coupled to CM5 chip; ligand flowed in HBS-P (0.01 M HEPES pH 7.4, 0.15 M NaCl, 0.005% P20) with 1 mM CaCl2, 10 ul/min, 25 C; kinetic fit to a 1:1 Langmuir model
Details: both partners purified

B1: LRP1 cluster II (domain or fragment)
chain: PQCQPGEFACANSRCIQERWKCDGDNDCLDNSDEAPALCHQHTCPSDRFKCENNRCIPNRWLCDGDNDCGNSEDESNATCSARTCPPNQFSCASGRCIPISWTCDLDDDCGDRSDESASCAYPTCFPLTQFTCNNGRCININWRCDNDNDCGDNSDEAGCSHSCSSTQFKCNSGRCIPEHWTCDGDNDCGDYSDETHANCTNQATRPPGGCHTDEFQCRLDGLCIPLRWRCDGDTDCMDSSDEKSCEGVTHVCDPSVKFGCKDSARCISKAWVCDGDNDCEDNSDEENCESLACRPPSHPCANNTSVCLPPDKLCDGNDDCGDGSDEGELC
Binder B1 has a Kd of 33 nM, a koff of 0.00042 s⁻¹ and a kon of 13000 M⁻¹ s⁻¹.

B2: Soluble form of the VLDL receptor containing repeats 1 to 8 (domain or fragment)
chain: not shown
notes: also called VLDLR 1 to 8; recombinant soluble VLDLR
B2 gave a Kd of 5 nM, a koff of 0.00027 s⁻¹ and a kon of 110000 M⁻¹ s⁻¹.

B3: LRP1 cluster III (domain or fragment)
chain: not shown
Work on B3 yielded a Kd of 22 nM, a koff of 0.00027 s⁻¹ and a kon of 12000 M⁻¹ s⁻¹.

B4: LRP1 cluster IV (domain or fragment)
chain: not shown
B4 was tested, and the Kd was 67 nM, the koff was 0.00066 s⁻¹ and the kon was 9800 M⁻¹ s⁻¹.
